Drawing on paper PMC4021855 (Nature chemical biology, 2013), this text covers binding result and Kd for 1 molecule.

Ends that are not written are not given here.

For test [1], the target named is human full-length KRS WT, His-tagged (human, UniProt Q15046 1-597). The test is described as follows: AlphaScreen or HTRF. A general note: Alpha assays give light when donor and acceptor beads are brought close together.
Test [2] addresses human full-length KRS T52D, His-tagged (human, UniProt Q15046 1-597, T52D). Briefly: AlphaScreen or HTRF.

human full-length KRS T52D, His-tagged, sequence (Q15046 whole entry T52D): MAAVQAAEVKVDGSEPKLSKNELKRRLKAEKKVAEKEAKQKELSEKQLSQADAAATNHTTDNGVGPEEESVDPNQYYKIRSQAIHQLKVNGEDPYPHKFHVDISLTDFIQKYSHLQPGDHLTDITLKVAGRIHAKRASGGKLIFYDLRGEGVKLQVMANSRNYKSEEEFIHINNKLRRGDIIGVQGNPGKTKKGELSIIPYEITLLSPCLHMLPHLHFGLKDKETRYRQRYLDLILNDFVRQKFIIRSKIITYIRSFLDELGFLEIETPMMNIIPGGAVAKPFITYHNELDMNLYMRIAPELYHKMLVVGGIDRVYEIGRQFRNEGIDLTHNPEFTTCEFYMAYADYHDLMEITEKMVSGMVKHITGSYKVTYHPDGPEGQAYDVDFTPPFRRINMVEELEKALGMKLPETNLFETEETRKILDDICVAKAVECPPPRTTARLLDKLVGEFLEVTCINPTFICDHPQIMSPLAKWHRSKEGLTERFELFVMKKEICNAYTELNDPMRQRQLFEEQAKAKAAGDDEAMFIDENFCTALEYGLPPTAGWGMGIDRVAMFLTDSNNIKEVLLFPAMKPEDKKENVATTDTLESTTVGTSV
human full-length KRS WT, His-tagged, sequence (Q15046 whole entry): as the sequence (Q15046 whole entry T52D) above, with D52T counted along it

B1: AIMP2_(1–48)-TRX-Biotin (domain or fragment, human, UniProt Q13155 1-48, looked up)
chain: MPMYQVKPYHGGGAPLRVELPTCMYRLPNVHGRSYGPAPGAGHVQEES-{TRX}
modifications: also: biotin via EZ-Link-NHS-PEG12-Biotin, places not given here
By Kd is commonly meant the equilibrium constant for the complex coming apart. High values mean lower affinity, low ones higher affinity. Consider B1, for which, in test [1], the binding result was “binds”. Further, the Kd in test [2] amounted to 333 nM.
